From article PMC9398120 (Molecular Cancer Therapeutics, 2021)

How the values were obtained:
recombinant CD73 [1] = molecular target: T1, recombinant CD73 (Homo sapiens, UniProt P21589)
recombinant CD73 [2] = molecular target: T1, recombinant CD73; assay: AUC

T1 sequence (P21589 27-549): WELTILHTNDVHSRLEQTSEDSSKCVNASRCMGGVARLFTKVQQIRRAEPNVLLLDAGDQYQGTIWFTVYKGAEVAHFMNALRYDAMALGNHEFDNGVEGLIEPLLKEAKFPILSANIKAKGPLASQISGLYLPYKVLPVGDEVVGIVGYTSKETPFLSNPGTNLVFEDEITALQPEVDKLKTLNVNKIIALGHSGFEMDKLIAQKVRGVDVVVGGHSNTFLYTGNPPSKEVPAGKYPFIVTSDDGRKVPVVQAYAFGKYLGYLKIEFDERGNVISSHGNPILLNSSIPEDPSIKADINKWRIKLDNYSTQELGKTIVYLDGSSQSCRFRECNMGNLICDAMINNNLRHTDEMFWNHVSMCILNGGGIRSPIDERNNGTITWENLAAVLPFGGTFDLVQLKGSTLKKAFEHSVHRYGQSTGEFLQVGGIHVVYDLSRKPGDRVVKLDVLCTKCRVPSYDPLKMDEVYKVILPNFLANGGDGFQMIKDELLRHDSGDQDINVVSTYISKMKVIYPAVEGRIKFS

- Kd (recombinant CD73 [1]): 0.074 nM
- stoichiometry N (recombinant CD73 [2]): 1 mAb19 per CD73 (printed as 2:2)
B1: mAb19 (antibody, V domains shown)
VH: QVQLVQSGAEVKKPGDSVKVSCKASGYTFTTYWMHWVRQAPGQGLEWMGAIYPGLSDTTYNQKFKGKVTMTRDTSTSTVYMKLSSLRSEDTAVYYCARLLDYAMDYWGQGTLVTVSS
VL: DIQMTQSPSSLSASVGDRVTITCRASQDIRSYLNWHQQKPGKAPKLLIWYTSRLHSGVPSRFSGSGSGTDYTLTISSLQPEDFATYFCQQGETLPWTFGQGTKLEIK
